Data set [1] deals with T1, Pyk1 (Streptomyces coelicolor, UniProt Q9S2I9).
T1 construct: E. coli codon-optimized gene; E. coli Origami B host
T1 sequence (Q9S2I9 1-478): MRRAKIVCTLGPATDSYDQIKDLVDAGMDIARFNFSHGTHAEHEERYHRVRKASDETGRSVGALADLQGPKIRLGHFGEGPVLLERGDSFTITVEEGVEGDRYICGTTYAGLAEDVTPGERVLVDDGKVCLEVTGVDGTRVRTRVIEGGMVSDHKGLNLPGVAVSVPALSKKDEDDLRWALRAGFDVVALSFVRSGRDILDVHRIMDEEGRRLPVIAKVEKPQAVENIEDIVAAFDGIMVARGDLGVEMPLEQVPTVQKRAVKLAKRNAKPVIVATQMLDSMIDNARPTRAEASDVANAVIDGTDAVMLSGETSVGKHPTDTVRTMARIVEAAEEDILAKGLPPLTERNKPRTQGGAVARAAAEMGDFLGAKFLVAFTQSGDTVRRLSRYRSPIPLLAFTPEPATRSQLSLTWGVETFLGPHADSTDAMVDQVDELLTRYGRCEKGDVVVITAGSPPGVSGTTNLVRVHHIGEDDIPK
Kind of data set: pyruvate kinase activity assay, purified enzyme, Hill or Michaelis-Menten fit. The class given is biochemical. The conditions noted are these: activator; PEP and ADP concentrations not told; read-out: No AMP / Pyk1. The text has this:
pyruvate kinase activity assay, purified enzyme, Hill or Michaelis-Menten fit on Pyk1

The target in another data set is T2, Pyk2 (Streptomyces coelicolor, UniProt Q9L299).
T2 construct: native gene; E. coli Rosetta host
T2 sequence (Q9L299 1-476): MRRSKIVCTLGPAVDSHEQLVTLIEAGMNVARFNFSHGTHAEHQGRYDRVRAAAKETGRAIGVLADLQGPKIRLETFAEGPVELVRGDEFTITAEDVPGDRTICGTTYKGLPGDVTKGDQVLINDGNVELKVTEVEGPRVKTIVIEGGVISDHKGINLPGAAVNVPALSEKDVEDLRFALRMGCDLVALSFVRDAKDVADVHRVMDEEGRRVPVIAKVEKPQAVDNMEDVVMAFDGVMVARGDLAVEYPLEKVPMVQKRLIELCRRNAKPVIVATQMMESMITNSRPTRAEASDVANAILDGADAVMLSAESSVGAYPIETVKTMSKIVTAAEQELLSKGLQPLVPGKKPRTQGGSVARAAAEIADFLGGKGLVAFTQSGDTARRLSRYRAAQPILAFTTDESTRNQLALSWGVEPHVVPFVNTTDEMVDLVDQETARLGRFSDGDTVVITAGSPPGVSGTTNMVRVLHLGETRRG
The description is as above. The conditions noted are these: activator; PEP and ADP concentrations not told; read-out: No AMP / Pyk2. The class given is biochemical. The text has this: pyruvate kinase activity assay, purified enzyme, Hill or Michaelis-Menten fit on Pyk2

The target of data set [2] is T1, Pyk1. Kind of data set: pyruvate kinase activity assay, purified enzyme. It counts as biochemical. The conditions noted are these: activator.
Substrate in data set [3]: C=C(OP(=O)(O)O)C(=O)O
The data set can be described thus: pyruvate kinase activity assay, purified enzyme, Hill fit. The conditions noted are these: 1.5 mM ADP; no AMP; cooperative, Hill coefficient 3.7. It counts as biochemical, Streptomyces coelicolor. The text has this: pyruvate kinase activity assay, purified enzyme, Hill fit on Pyk1

Substrate in data set [4]: Nc1ncnc2c1ncn2[C@@H]1O[C@H](COP(=O)(O)OP(=O)(O)O)[C@@H](O)[C@H]1O
The data set can be described thus: pyruvate kinase activity assay, purified enzyme, Michaelis-Menten fit. The class given is biochemical, Streptomyces coelicolor. The conditions noted are these: 5 mM PEP; no AMP; Michaelis-Menten-type kinetics. The text has this: pyruvate kinase activity assay, purified enzyme, Michaelis-Menten fit on Pyk1

Substrate in data set [5]: C=C(OP(=O)(O)O)C(=O)O
The data set can be described thus: pyruvate kinase activity assay, purified enzyme, Hill fit. The class given is biochemical, Streptomyces coelicolor. The conditions noted are these: 1.5 mM ADP; no AMP; cooperative, Hill coefficient 1.5. The text has this: pyruvate kinase activity assay, purified enzyme, Hill fit on Pyk2

Substrate in data set [6]: Nc1ncnc2c1ncn2[C@@H]1O[C@H](COP(=O)(O)OP(=O)(O)O)[C@@H](O)[C@H]1O
The data set can be described thus: pyruvate kinase activity assay, purified enzyme, Michaelis-Menten fit. It counts as biochemical, Streptomyces coelicolor. The conditions noted are these: 5 mM PEP; no AMP; Michaelis-Menten-type kinetics. The text has this:
pyruvate kinase activity assay, purified enzyme, Michaelis-Menten fit on Pyk2
The source holds these as a separate data set.

`Nc1ncnc2c1ncn2[C@@H]1O[C@H](COP(=O)(O)O)[C@@H](O)[C@H]1O` [AMP]: the EC50 at Pyk1 [1] was 10 µM; on Pyk2, 3800 µM.

Consider `O=P(O)(O)OC[C@H]1OC(O)[C@H](O)[C@@H]1O` (stereo partly shown) [ribose-5-phosphate], for which the “pyruvate kinase activity assay, purified enzyme” value on Pyk1 [2] is reported as “Pyk1 was also shown to be highly stimulated by ribose-5-phosphate”.

B1: Pyk1 (Streptomyces coelicolor A3(2)) (protein)
chain: T1 sequence (Q9S2I9 1-478)
notes: E. coli codon-optimized gene; E. coli Origami B host
As for B1, in data set [3], the K0.5 is listed as 3.5 mM; the Vmax (usually the top rate of the reaction or transport when substrate is in excess) worked out at 14.1 µmol/min/mg; the kcat – broadly, the number of substrate molecules converted per active site and unit of time at saturation – was determined as 350 s⁻¹; the kcat/Km (usually the second-order rate constant that governs catalysis at low substrate concentration) was determined as 100000 M⁻¹ s⁻¹. In addition, in data set [4], the K0.5 worked out at 0.6 mM and the kcat/Km was 1.59e+06 M⁻¹ s⁻¹.

B2: Pyk2 (Streptomyces coelicolor A3(2)) (protein)
chain: T2 sequence (Q9L299 1-476)
notes: native gene; E. coli Rosetta host
Consider B2, for which, in data set [5], the K0.5 was 1.3 mM and the kcat/Km came out at 14000 M⁻¹ s⁻¹. Also, in data set [6], the K0.5 worked out at 0.3 mM and the kcat/Km is 145000 M⁻¹ s⁻¹.

Source of the values: article PMC5801464, “Expanding Primary Metabolism Helps Generate the Metabolic Robustness To Facilitate Antibiotic Biosynthesis in Streptomyces” (mBio, 2018).
